Data published in patent US20150374794A1 (Novo Nordisk, published 2015).
Numbered stars: 1 amine (or outer) side, 2 acyl side, 3 side chain; on linkers, the order of the positions; unused ones are H or OH. Square brackets hold non-standard residues; d marks the D form. Side chains are listed from the residue outwards. Ends that are not written are not given here. * marks the point of attachment. C18 diacid = O=C(O)CCCCCCCCCCCCCCCCC(=O)*; γGlu = O=C(O)[C@H](CCC(=O)[*:2])N[*:1]; Ac4c = NC1(C(=O)O)CCC1; AEEA = NCCOCCOCC(=O)O; Aib = CC(C)(N)C(=O)O

B1: N^ε28-[2-[2-[2-[[2-[2-[2-[[(4S)-4-carboxy-4-[[(4S)-4-carboxy-4-[[(4S)-4-carboxy-4-(17-carboxyheptadecanoylamino)butanoyl]amino]butanoyl]amino]butanoyl]amino]eth … (peptide)
peptide: H[Aib]QGTFTSDVSKYLDLRRAQDFVQWLLK([AEEA-AEEA-γGlu-γGlu-γGlu-C18 diacid])T-NH2
modifications: N-terminus assumed
SMILES: CC(C)C[C@H](NC(=O)[C@H](CC(=O)O)NC(=O)[C@H](CC(C)C)NC(=O)[C@H](Cc1ccc(O)cc1)NC(=O)[C@H](CCCCN)NC(=O)[C@H](CO)NC(=O)[C@@H](NC(=O)[C@H](CC(=O)O)NC(=O)[C@H](CO)NC(=O)[C@@H](NC(=O)[C@H](Cc1ccccc1)NC(=O)[C@@H](NC(=O)CNC(=O)[C@H](CCC(N)=O)NC(=O)C(C)(C)NC(=O)[C@@H](N)Cc1c[nH]cn1)[C@@H](C)O)[C@@H](C)O)C(C)C)C(=O)N[C@@H](CCCNC(=N)N)C(=O)N[C@@H](CCCNC(=N)N)C(=O)N[C@@H](C)C(=O)N[C@@H](CCC(N)=O)C(=O)N[C@@H](CC(=O)O)C(=O)N[C@@H](Cc1ccccc1)C(=O)N[C@H](C(=O)N[C@@H](CCC(N)=O)C(=O)N[C@@H](Cc1c[nH]c2ccccc12)C(=O)N[C@@H](CC(C)C)C(=O)N[C@@H](CC(C)C)C(=O)N[C@@H](CCCCNC(=O)COCCOCCNC(=O)COCCOCCNC(=O)CC[C@H](NC(=O)CC[C@H](NC(=O)CC[C@H](NC(=O)CCCCCCCCCCCCCCCCC(=O)O)C(=O)O)C(=O)O)C(=O)O)C(=O)N[C@H](C(N)=O)[C@@H](C)O)C(C)C
B2: N^ε28-[2-[2-[2-[[2-[2-[2-[[(4S)-4-carboxy-4-[[(4S)-4-carboxy-4-[[(4S)-4-carboxy-4-(17-carboxyheptadecanoylamino)butanoyl]amino]butanoyl]amino]butanoyl]amino]eth … (peptide)
peptide: H[Aib]QGTFTSDVSRYLDARRAQDFVQWLLK([AEEA-AEEA-γGlu-γGlu-γGlu-C18 diacid])T-NH2
modifications: N-terminus assumed
SMILES: CC(C)C[C@H](NC(=O)[C@H](Cc1ccc(O)cc1)NC(=O)[C@H](CCCNC(=N)N)NC(=O)[C@H](CO)NC(=O)[C@@H](NC(=O)[C@H](CC(=O)O)NC(=O)[C@H](CO)NC(=O)[C@@H](NC(=O)[C@H](Cc1ccccc1)NC(=O)[C@@H](NC(=O)CNC(=O)[C@H](CCC(N)=O)NC(=O)C(C)(C)NC(=O)[C@@H](N)Cc1c[nH]cn1)[C@@H](C)O)[C@@H](C)O)C(C)C)C(=O)N[C@@H](CC(=O)O)C(=O)N[C@@H](C)C(=O)N[C@@H](CCCNC(=N)N)C(=O)N[C@@H](CCCNC(=N)N)C(=O)N[C@@H](C)C(=O)N[C@@H](CCC(N)=O)C(=O)N[C@@H](CC(=O)O)C(=O)N[C@@H](Cc1ccccc1)C(=O)N[C@H](C(=O)N[C@@H](CCC(N)=O)C(=O)N[C@@H](Cc1c[nH]c2ccccc12)C(=O)N[C@@H](CC(C)C)C(=O)N[C@@H](CC(C)C)C(=O)N[C@@H](CCCCNC(=O)COCCOCCNC(=O)COCCOCCNC(=O)CC[C@H](NC(=O)CC[C@H](NC(=O)CC[C@H](NC(=O)CCCCCCCCCCCCCCCCC(=O)O)C(=O)O)C(=O)O)C(=O)O)C(=O)N[C@H](C(N)=O)[C@@H](C)O)C(C)C
B3: N^ε28-[(4S)-4-carboxy-4-[[(4S)-4-carboxy-4-[[2-[2-[2-[[2-[2-[2-[[(4S)-4-carboxy-4-(17-carboxyheptadecanoylamino)butanoyl]amino]ethoxy]ethoxy]acetyl]amino]ethoxy … (peptide)
peptide: H[Aib]QGTFTSDLSKYLDSRRAREFVQWLLK([γGlu-γGlu-AEEA-AEEA-γGlu-C18 diacid])T-NH2
modifications: N-terminus assumed
SMILES: CC(C)C[C@H](NC(=O)[C@H](Cc1ccc(O)cc1)NC(=O)[C@H](CCCCN)NC(=O)[C@H](CO)NC(=O)[C@H](CC(C)C)NC(=O)[C@H](CC(=O)O)NC(=O)[C@H](CO)NC(=O)[C@@H](NC(=O)[C@H](Cc1ccccc1)NC(=O)[C@@H](NC(=O)CNC(=O)[C@H](CCC(N)=O)NC(=O)C(C)(C)NC(=O)[C@@H](N)Cc1c[nH]cn1)[C@@H](C)O)[C@@H](C)O)C(=O)N[C@@H](CC(=O)O)C(=O)N[C@@H](CO)C(=O)N[C@@H](CCCNC(=N)N)C(=O)N[C@@H](CCCNC(=N)N)C(=O)N[C@@H](C)C(=O)N[C@@H](CCCNC(=N)N)C(=O)N[C@@H](CCC(=O)O)C(=O)N[C@@H](Cc1ccccc1)C(=O)N[C@H](C(=O)N[C@@H](CCC(N)=O)C(=O)N[C@@H](Cc1c[nH]c2ccccc12)C(=O)N[C@@H](CC(C)C)C(=O)N[C@@H](CC(C)C)C(=O)N[C@@H](CCCCNC(=O)CC[C@H](NC(=O)CC[C@H](NC(=O)COCCOCCNC(=O)COCCOCCNC(=O)CC[C@H](NC(=O)CCCCCCCCCCCCCCCCC(=O)O)C(=O)O)C(=O)O)C(=O)O)C(=O)N[C@H](C(N)=O)[C@@H](C)O)C(C)C
B4: N^ε28-[(4S)-4-carboxy-4-[[2-[2-[2-[[2-[2-[2-[[(4S)-4-carboxy-4-[[(4S)-4-carboxy-4-(17-carboxyheptadecanoylamino)butanoyl]amino]butanoyl]amino]ethoxy]ethoxy]acet … (peptide)
peptide: H[Aib]HGTFTSDLSKYLESRRAREFVAWLLK([γGlu-AEEA-AEEA-γGlu-γGlu-C18 diacid])T-NH2
modifications: N-terminus assumed
SMILES: CC(C)C[C@H](NC(=O)[C@H](Cc1c[nH]c2ccccc12)NC(=O)[C@H](C)NC(=O)[C@@H](NC(=O)[C@H](Cc1ccccc1)NC(=O)[C@H](CCC(=O)O)NC(=O)[C@H](CCCNC(=N)N)NC(=O)[C@H](C)NC(=O)[C@H](CCCNC(=N)N)NC(=O)[C@H](CCCNC(=N)N)NC(=O)[C@H](CO)NC(=O)[C@H](CCC(=O)O)NC(=O)[C@H](CC(C)C)NC(=O)[C@H](Cc1ccc(O)cc1)NC(=O)[C@H](CCCCN)NC(=O)[C@H](CO)NC(=O)[C@H](CC(C)C)NC(=O)[C@H](CC(=O)O)NC(=O)[C@H](CO)NC(=O)[C@@H](NC(=O)[C@H](Cc1ccccc1)NC(=O)[C@@H](NC(=O)CNC(=O)[C@H](Cc1c[nH]cn1)NC(=O)C(C)(C)NC(=O)[C@@H](N)Cc1c[nH]cn1)[C@@H](C)O)[C@@H](C)O)C(C)C)C(=O)N[C@@H](CC(C)C)C(=O)N[C@@H](CCCCNC(=O)CC[C@H](NC(=O)COCCOCCNC(=O)COCCOCCNC(=O)CC[C@H](NC(=O)CC[C@H](NC(=O)CCCCCCCCCCCCCCCCC(=O)O)C(=O)O)C(=O)O)C(=O)O)C(=O)N[C@H](C(N)=O)[C@@H](C)O
B5: N^ε28-[2-[2-[2-[[2-[2-[2-[[(4S)-4-carboxy-4-[[(4S)-4-carboxy-4-[[(4S)-4-carboxy-4-(17-carboxyheptadecanoylamino)butanoyl]amino]butanoyl]amino]butanoyl]amino]eth … (peptide)
peptide: H[Aib]QGTFTSDVSRYLDLRRAQDFVQWLLK([AEEA-AEEA-γGlu-γGlu-γGlu-C18 diacid])T-NH2
modifications: N-terminus assumed
SMILES: CC(C)C[C@H](NC(=O)[C@H](CC(=O)O)NC(=O)[C@H](CC(C)C)NC(=O)[C@H](Cc1ccc(O)cc1)NC(=O)[C@H](CCCNC(=N)N)NC(=O)[C@H](CO)NC(=O)[C@@H](NC(=O)[C@H](CC(=O)O)NC(=O)[C@H](CO)NC(=O)[C@@H](NC(=O)[C@H](Cc1ccccc1)NC(=O)[C@@H](NC(=O)CNC(=O)[C@H](CCC(N)=O)NC(=O)C(C)(C)NC(=O)[C@@H](N)Cc1c[nH]cn1)[C@@H](C)O)[C@@H](C)O)C(C)C)C(=O)N[C@@H](CCCNC(=N)N)C(=O)N[C@@H](CCCNC(=N)N)C(=O)N[C@@H](C)C(=O)N[C@@H](CCC(N)=O)C(=O)N[C@@H](CC(=O)O)C(=O)N[C@@H](Cc1ccccc1)C(=O)N[C@H](C(=O)N[C@@H](CCC(N)=O)C(=O)N[C@@H](Cc1c[nH]c2ccccc12)C(=O)N[C@@H](CC(C)C)C(=O)N[C@@H](CC(C)C)C(=O)N[C@@H](CCCCNC(=O)COCCOCCNC(=O)COCCOCCNC(=O)CC[C@H](NC(=O)CC[C@H](NC(=O)CC[C@H](NC(=O)CCCCCCCCCCCCCCCCC(=O)O)C(=O)O)C(=O)O)C(=O)O)C(=O)N[C@H](C(N)=O)[C@@H](C)O)C(C)C

Key:
human GLP-1 receptor [1] = biological target: T1, human GLP-1 receptor (human, UniProt P43220 24-463); test: cell-based or functional assay
human glucagon receptor [2] = biological target: T2, human glucagon receptor (human, UniProt P47871 26-477); test: cell-based or functional assay
human GLP-1 receptor [3] = biological target: T1, human GLP-1 receptor; test: displacement of 125I-GLP-1(7-36)NH2, membranes with human GLP-1R, SPA
Description: (§1) The receptor binding of each compound to the human GLP-1 receptor was measured in a displacement binding assay. […] Each derivative was added in a series of concentrations to isolated membranes containing the human GLP-1 receptor and displacement of the labelled ligand was monitored. The receptor binding was reported as the concentration at which half of the labelled ligand was displaced from the receptor, the IC₅₀ value.

human glucagon receptor [4] = biological target: T2, human glucagon receptor; test: displacement of 125I-glucagon, membranes with human glucagon receptor, SPA
Description: as §1, with “human glucagon” for “human GLP-1”, “ligand is” for “ligand was”

T2 sequence (P47871 26-477): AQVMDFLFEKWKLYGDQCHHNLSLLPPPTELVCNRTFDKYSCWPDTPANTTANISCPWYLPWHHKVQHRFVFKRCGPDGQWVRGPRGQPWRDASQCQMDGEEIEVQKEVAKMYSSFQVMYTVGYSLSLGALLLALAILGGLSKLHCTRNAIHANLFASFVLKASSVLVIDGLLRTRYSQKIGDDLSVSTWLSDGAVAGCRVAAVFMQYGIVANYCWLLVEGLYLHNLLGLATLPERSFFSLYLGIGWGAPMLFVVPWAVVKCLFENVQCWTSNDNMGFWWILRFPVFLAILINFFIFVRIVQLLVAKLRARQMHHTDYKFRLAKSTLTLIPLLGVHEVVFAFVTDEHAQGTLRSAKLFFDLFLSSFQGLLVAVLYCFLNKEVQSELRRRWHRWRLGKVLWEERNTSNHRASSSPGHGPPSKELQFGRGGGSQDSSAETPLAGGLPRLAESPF

Binder	EC50 GLP-1R, CRE luciferase reporter gene assay in BHK cells (human GLP-1 receptor [1]) [nM]	EC50 GlucR, CRE luciferase reporter gene assay in BHK cells (human glucagon receptor [2]) [nM]	IC50 (human GLP-1 receptor [3]) [nM]	IC50 (human glucagon receptor [4]) [nM]
B1	0.004	0.017	0.7	5.7
H[Aib]QGTFTSDLSKYLDLRRARDFVQWLLK([Gly-Ser-Glu-Ser-γGlu-γGlu-C18 diacid])T-NH2	0.027	0.0305	1.1	18.4
B2	0.003	0.057	0.5	11.3
B3	0.0053	0.0063	0.3	2.1
H[Ac4c]QGTFTSDLSKYLDLKRAREFVQWLLK([Gly-Ser-Glu-Gly-Ser-γGlu-γGlu-C18 diacid])T-NH2	0.044	0.008	0.2	3.1
H[Aib]HGTFTSDLSKYLESRRARDFVQWLLK([Gly-Ser-Glu-Gly-Ser-γGlu-γGlu-C18 diacid])T-NH2	0.004	0.002	0.2	0.1
B4	0.0195	0.0029	1.5	0.8
H[Ac4c]HGTFTSDLSKYLESRRAQDFVQWLLK([Gly-Ser-Glu-Gly-Ser-γGlu-γGlu-C18 diacid])T-NH2	0.003	0.001	2.6	0.7
H[Aib]QGTFTSDLSKYLDLKRAREFVQWLLK([γGlu-γGlu-AEEA-AEEA-γGlu-C18 diacid])T-NH2	0.009	0.0087	0.5	4
B5	0.005	0.049	1.5	16.2
H[Ac4c]QGTFTSDLSKYLEERRARDFVQWLLK([Gly-Ser-Glu-Gly-Ser-γGlu-γGlu-C18 diacid])T-NH2	0.0058	0.113	0.2	3.9
